Experimental data: the Human Domainome abundance scans (Beltran et al. 2025)
± gives the uncertainty stated by the source.

B1: Ventral anterior homeobox 1, residues 102 to 157; numbered along this chain, Q5SQQ9 (parent)
chain: RTRTSFTAEQLYRLEMEFQRCQYVVGRERTELARQLNLSETQVKVWFQNRRTKQKK
B2: Glucocorticoid receptor, residues 419 to 494; numbered along this chain, P04150 (parent)
chain: KLCLVCSDEASGCHYGVLTCGSCKVFFKRAVEGQHNYLCAGRNDCIIDKIRRKNCPACRYRKCLQAGMNLEARKTK

Variants of: B1
Experiment: abundance fitness (aPCA) (normalised: wild type 0, dead -1); higher = more abundant; growth selection in yeast, the domain comes from the species named
Conditions: Homo sapiens

Variant	abundance fitness
K44E	0.048 ± 0.15
E31S	-0.386 ± 0.15
E31P	-0.662 ± 0.24
E31C	-0.683 ± 0.22
N37V	-0.464 ± 0.29
N37A	-0.211 ± 0.23
T41V	-0.104 ± 0.1
T41D	0.105 ± 0.18
K56N	0.151 ± 0.34
K56C	0.148 ± 0.37
T30P	-0.677 ± 0.3
S5R	-0.597 ± 0.12
S5C	-0.225 ± 0.16
G26N	-0.318 ± 0.13
R34I	-0.325 ± 0.48
R50A	-0.163 ± 0.13
R50N	-0.424 ± 0.35
L11E	0.308 ± 0.14
L36Q	-0.545 ± 0.18
L36Y	-0.858 ± 0.23
L36D	-0.643 ± 0.3
L36H	-0.569 ± 0.22
L36F	-0.741 ± 0.21
C21W	-0.635 ± 0.33
K55Q	0.29 ± 0.21

Variant	abundance fitness
L14T	-0.843 ± 0.38
F18Y	-0.124 ± 0.23
V24R	-0.243 ± 0.13
V24L	0.059 ± 0.14
E9D	-0.135 ± 0.18
A33N	-0.897 ± 0.35
Q22V	-0.324 ± 0.12
Q22K	-0.103 ± 0.21
Q22Y	-0.641 ± 0.35
Q22I	-0.38 ± 0.25
Q22T	-0.17 ± 0.16
T7A	-0.411 ± 0.12
T52F	-0.285 ± 0.17
T52G	0.137 ± 0.09
Q48T	-0.076 ± 0.26
Q48H	-0.505 ± 0.39
Q35D	-0.005 ± 0.19
S39L	-0.591 ± 0.15
S39D	0.264 ± 0.18
V25K	-0.18 ± 0.16
T4W	-0.095 ± 0.14
T4Q	-0.11 ± 0.2
T4R	-0.35 ± 0.11
R3M	0.279 ± 0.16
Q19C	-0.225 ± 0.16

Variant	abundance fitness
N49Q	-0.038 ± 0.21
N49P	-0.929 ± 0.31
E15L	-0.44 ± 0.22
E15H	-1.08 ± 0.44
K53E	0.186 ± 0.16
K53C	0.202 ± 0.18
F47Q	-0.767 ± 0.25
F47M	-0.228 ± 0.17
F47E	-1.04 ± 0.3
Q54K	0.144 ± 0.27
Q54T	-0.332 ± 0.22
R51G	-0.16 ± 0.1
R51N	-0.117 ± 0.35
R51C	-0.08 ± 0.17
R51V	-0.319 ± 0.12
M16F	-0.285 ± 0.31
F6G	-0.427 ± 0.1
Y23C	-0.145 ± 0.26
Y23E	0.012 ± 0.35
R27A	0.07 ± 0.14
R27P	0.008 ± 0.18
E28D	-0.077 ± 0.24
E28C	-0.412 ± 0.18
L38M	-0.112 ± 0.15

Variants of: B2
Experiment: as above
Conditions: Homo sapiens

Variant	abundance fitness
N69A	0.006 ± 0.042
N69H	0.028 ± 0.067
N69Q	-0.071 ± 0.053
N69G	-0.047 ± 0.039
N69F	-0.023 ± 0.062
N69Y	-0.105 ± 0.066
N69R	0.01 ± 0.033
N69T	0.011 ± 0.048
N69S	0.039 ± 0.044
N69P	-0.252 ± 0.051
N69D	-0.033 ± 0.07
N69M	-0.022 ± 0.048
N69I	-0.089 ± 0.081
N69K	0.001 ± 0.048
N69L	-0.11 ± 0.036
N69W	-0.061 ± 0.043
N69E	-0.02 ± 0.043
N69V	-0.049 ± 0.036
M68K	-0.632 ± 0.16
M68N	-0.62 ± 0.45
M68F	-0.076 ± 0.065
M68L	-0.133 ± 0.035
M68A	-0.377 ± 0.06
M68C	-0.12 ± 0.06

Variant	abundance fitness
M68V	-0.472 ± 0.055
M68W	-0.846 ± 0.1
M68T	-0.595 ± 0.12
M68R	-0.719 ± 0.059
M68Y	-0.215 ± 0.085
M68E	-0.529 ± 0.086
M68P	-0.928 ± 0.14
M68D	-0.768 ± 0.18
M68Q	-0.999 ± 0.18
M68I	-0.422 ± 0.17
M68H	-0.551 ± 0.15
M68S	-0.771 ± 0.092
M68G	-0.574 ± 0.055
L70W	-0.033 ± 0.04
L70A	-0.058 ± 0.036
L70N	-0.011 ± 0.076
L70V	0.021 ± 0.032
L70D	-0.033 ± 0.072
L70I	-0.018 ± 0.083
L70R	0.023 ± 0.03
L70C	-0.029 ± 0.053
L70Q	-0.02 ± 0.053
L70E	-0.021 ± 0.049
L70M	0.052 ± 0.054

Variant	abundance fitness
L70Y	0.023 ± 0.077
L70K	-0.029 ± 0.054
L70G	-0.068 ± 0.033
L70T	-0.03 ± 0.045
L70H	0.01 ± 0.073
L70F	-0.08 ± 0.065
L70S	0.052 ± 0.039
K62D	-0.336 ± 0.082
K62T	-0.047 ± 0.042
K62C	0.007 ± 0.062
K62N	-0.031 ± 0.081
K62P	-0.867 ± 0.11
K62M	-0.042 ± 0.041
K62Q	-0.066 ± 0.049
K62S	-0.166 ± 0.044
K62R	-0.05 ± 0.031
K62E	-0.2 ± 0.049
K62L	-0.048 ± 0.034
K62V	-0.119 ± 0.034
K62A	-0.015 ± 0.034
K62F	-0.158 ± 0.073
K62Y	-0.187 ± 0.082
K62G	-0.105 ± 0.033
K62W	-0.505 ± 0.064

Variant	abundance fitness
A72V	-0.043 ± 0.035
A72Q	0.008 ± 0.043
A72W	-0.023 ± 0.039
A72G	-0.023 ± 0.032
A72P	-0.077 ± 0.055
A72M	0.005 ± 0.053
A72I	0.002 ± 0.062
A72R	-0.054 ± 0.032
A72S	-0.067 ± 0.042
A72Y	0.011 ± 0.061
A72H	-0.044 ± 0.061
A72N	-0.037 ± 0.072
A72E	0.047 ± 0.041
A72D	-0.017 ± 0.06
A72L	-0.015 ± 0.036
A72F	-0.285 ± 0.081
A72K	0.049 ± 0.045
G67K	-0.308 ± 0.082
G67F	-0.447 ± 0.12
G67S	-0.516 ± 0.079
G67T	-0.51 ± 0.08
G67E	-0.228 ± 0.07
G67Q	-0.371 ± 0.081
G67N	-0.226 ± 0.1

Variant	abundance fitness
G67R	-0.491 ± 0.055
G67D	-0.347 ± 0.12
G67V	-0.583 ± 0.076
G67I	-0.415 ± 0.21
G67P	-0.904 ± 0.19
G67A	-0.542 ± 0.067
G67Y	-0.304 ± 0.16
G67W	-0.656 ± 0.092
G67C	-0.534 ± 0.17
A66M	-0.031 ± 0.049
A66N	-0.02 ± 0.075
A66Q	-0.037 ± 0.059
A66G	-0.109 ± 0.044
A66R	-0.179 ± 0.036
A66W	-0.227 ± 0.05
A66V	0.021 ± 0.033
A66H	-0.052 ± 0.051
A66E	-0.036 ± 0.048
A66Y	-0.014 ± 0.065
A66K	0.024 ± 0.058
A66D	-0.33 ± 0.082
A66P	-0.859 ± 0.14
A66I	-0.242 ± 0.073
A66L	-0.024 ± 0.037

Variant	abundance fitness
A66S	-0.058 ± 0.039
A66C	-0.037 ± 0.048
A66T	0.029 ± 0.047
E71Y	-0.131 ± 0.081
E71F	-0.072 ± 0.059
E71Q	-0.051 ± 0.063
E71R	-0.095 ± 0.033
E71D	0.008 ± 0.048
E71P	-0.038 ± 0.05
E71A	-0.135 ± 0.041
E71S	-0.016 ± 0.041
E71V	-0.01 ± 0.038
E71G	-0.009 ± 0.032
E71K	-0.077 ± 0.056
E71W	-0.106 ± 0.04
E71C	-0.052 ± 0.049
E71N	-0.017 ± 0.065
E71I	-0.016 ± 0.065
E71H	-0.09 ± 0.061
E71T	-0.076 ± 0.053
E71L	-0.104 ± 0.038
T75Q	-0.099 ± 0.063
T75P	-0.005 ± 0.048
T75I	-0.044 ± 0.072

Variant	abundance fitness
T75V	-0.064 ± 0.048
T75L	0.054 ± 0.043
T75K	0.007 ± 0.076
T75R	-0.01 ± 0.04
T75G	0.044 ± 0.042
T75E	0.032 ± 0.063
T75F	0.064 ± 0.064
T75A	0.029 ± 0.044
T75N	0.014 ± 0.074
T75H	-0.038 ± 0.078
T75C	-0.075 ± 0.061
T75S	0.008 ± 0.043
T75M	-0.004 ± 0.062
T75W	0.047 ± 0.052
T75D	0.023 ± 0.069
K74I	0.027 ± 0.08
K74L	0.077 ± 0.038
K74V	-0.008 ± 0.044
K74P	-0.049 ± 0.056
K74A	-0.033 ± 0.049
K74Y	0.043 ± 0.15
K74Q	0.063 ± 0.057
K74C	-0.032 ± 0.06
K74G	-0.006 ± 0.037

Variant	abundance fitness
K74S	-0.047 ± 0.046
K74T	-0.034 ± 0.054
K74R	0.054 ± 0.037
K74D	0.19 ± 0.073
K74F	0.047 ± 0.077
K74E	0.091 ± 0.053
K74M	0.009 ± 0.054
K74W	-0.017 ± 0.05
K74N	-0.01 ± 0.094
K74H	0.039 ± 0.16
L64N	-0.083 ± 0.082
L64E	0.016 ± 0.039
L64P	-0.682 ± 0.13
L64Y	-0.161 ± 0.061
L64T	-0.074 ± 0.04
L64F	-0.107 ± 0.069
L64G	-0.273 ± 0.036
L64D	-0.296 ± 0.064
L64S	-0.082 ± 0.04
L64W	-0.031 ± 0.038
L64C	0.025 ± 0.052
L64A	-0.154 ± 0.039
L64M	-0.023 ± 0.053
L64K	-0.01 ± 0.045

Variant	abundance fitness
R73G	-0.021 ± 0.032
R73I	-0.066 ± 0.07
R73H	-0.109 ± 0.065
R73M	0.012 ± 0.05
R73Y	-0.062 ± 0.073
R73Q	-0.061 ± 0.058
R73P	-0.007 ± 0.048
R73L	-0.04 ± 0.033
R73K	0.004 ± 0.052
R73S	0.003 ± 0.037
R73N	-0.133 ± 0.084
R73F	-0.059 ± 0.059
R73C	-0.019 ± 0.052
R73E	-0.015 ± 0.042
R73D	-0.125 ± 0.076
R73T	0.024 ± 0.051
Q65A	-0.019 ± 0.038
Q65N	-0.071 ± 0.073
Q65F	-0.045 ± 0.065
Q65Y	-0.09 ± 0.066
Q65T	-0.086 ± 0.042
Q65G	-0.06 ± 0.039
Q65H	0.09 ± 0.062
Q65D	0.045 ± 0.071

Variant	abundance fitness
Q65W	-0.063 ± 0.042
Q65V	-0.029 ± 0.038
Q65E	-0.06 ± 0.061
Q65K	-0.052 ± 0.045
Q65P	-0.567 ± 0.079
Q65L	-0.035 ± 0.035
Q65C	-0.111 ± 0.05
Q65M	-0.057 ± 0.043
Q65S	-0.009 ± 0.038
Q65R	-0.053 ± 0.031
K76C	0.132 ± 0.14
K76S	0.099 ± 0.052
K76P	0.004 ± 0.073
K76Y	-0.206 ± 0.17
K76G	0.018 ± 0.052
K76N	0.045 ± 0.095
K76M	-0.023 ± 0.1
K76V	-0.001 ± 0.047
K76I	-0.277 ± 0.28
K76E	0.105 ± 0.059
K76F	0.006 ± 0.11
K76D	0.02 ± 0.068
K76H	-0.096 ± 0.27
K76W	-0.137 ± 0.083

Variant	abundance fitness
K76L	-0.001 ± 0.048
K76A	0.028 ± 0.051
C63N	-0.667 ± 0.21
C63H	-0.813 ± 0.25
C63Q	-0.661 ± 0.094
C63Y	-0.85 ± 0.22
C63V	-0.863 ± 0.088
C63I	-0.546 ± 0.23
C63T	-0.909 ± 0.13
C63S	-0.42 ± 0.05
C63F	-0.322 ± 0.11
C63L	-0.741 ± 0.068
C63E	-0.871 ± 0.11
C63W	-0.889 ± 0.12
C63A	-0.28 ± 0.039
C63G	-0.06 ± 0.031
C63K	-0.779 ± 0.14
C63M	-0.075 ± 0.049
C63R	-0.772 ± 0.082
C63D	-0.915 ± 0.24
